# In paper PMC10918641 (Biomaterials, 2023):
# System: C57BL/6J mice
# Conditions: mouse, in vivo
molecule,measurement,value
"OVA-PEG: OVA conjugated to PEG via urethane linkage (conjugate, UniProt P01012 2-386, looked up, PEG 10K conjugate) Ovalbumin: GSIGAASMEFCFDVFKELKVHHANENIFYCPIAIMSALAMVYLGAKDSTRTQINKVVRFDKLPGFGDSIEAQCGTSVNVHSSLRDILNQITKPNDVYSFSLASRLYAEERYPILPEYLQCVKELYRGGLEPINFQTAADQARELINSWVESQTNGIIRNVLQPSSVDSQTAMVLVNAIVFKGLWEKAFKDEDTQAMPFRVTEQESKPVQMMYQIGLFRVASMASEKMKILELPFASGTMSMLVLLPDEVSGLEQLESIINFEKLTEWTSSNVMEERKIKVYLPRMKMEEKYNLTSVLMAMGITDVFSSSANLSGISSAESLKISQAVHAAHAEINEAGREVVGSAEAGVDAASVSEEFRADHPFLFCIKHIATNAVLFFGRCVSP",PEG-specific IgM titer relative to Ex-PEG,~ 60 fold
same,anti-OVA IgG titer,lower titers of anti-OVA IgG than unmodified OVA
same,magnification of anti-OVA and anti-PEG responses by CFA/IFA emulsions,~ 2 fold
